Blank lines part the entries; values can stand above or below the binder they belong to.
What was measured:
[1] = biological target: IgE antibodies from sera of grass pollen allergy sufferers (human); assay: EAST inhibition test, four individual sera, plate-bound nPhl p 1, inhibitor up to 5 µg/ml
[2] = biological target: IgE antibodies from sera of grass pollen allergy sufferers (human); assay: cell-based or functional assay

- percent of the maximum inhibitory action of nPhl p 1 [1]: 20 to 50%
B1: Phl p 1 NoCys (histidine fusion protein) (protein, not shown: small tags and cut ends)
chain: IPKVPPGPNITATYGDKWLDAKSTWYGKPTAAGPKDNGGASGYKDVDKPPFSGMTGSGNTPIFKSGRGSGSSFEIKSTKPEASSGEPVVVHITDDNEEPIAAYHFDLSGIAFGSMAKKGDEQKLRSAGEVEIQFRRVKSKYPEGTKVTFHVEKGSNPNYLALLVKFVAGDGDVVAVDIKEKGKDKWIALKESWGAIWRIDTPEVLKGPFTVRYTTEGGTKGEAKDVIPEGWKADTAYESK

- allergenic efficacy from A50 values, basophil activation test (CD203c), against reference nPhl p 1 [2]: > 1000 fold
B2: Phl p 1 NoCys Δ1-6, 115-119, 213-220 (histidine fusion protein) (protein, not shown: small tags and cut ends)
chain: GPNITATYGDKWLDAKSTWYGKPTAAGPKDNGGASGYKDVDKPPFSGMTGSGNTPIFKSGRGSGSSFEIKSTKPEASSGEPVVVHITDDNEEPIAAYHFDLSGIAFGSDEQKLRSAGEVEIQFRRVKSKYPEGTKVTFHVEKGSNPNYLALLVKFVAGDGDVVAVDIKEKGKDKWIALKESWGAIWRIDTPEVLKGPFTVRGEAKDVIPEGWKADTAYESK

- allergenic efficacy from A50 values, basophil activation test (CD203c), against reference nPhl p 1 [2]: 100 to 1000 fold
B3: Phl p 1 NoCys Δ213-220 (histidine fusion protein) (protein, not shown: small tags and cut ends)
chain: IPKVPPGPNITATYGDKWLDAKSTWYGKPTAAGPKDNGGASGYKDVDKPPFSGMTGSGNTPIFKSGRGSGSSFEIKSTKPEASSGEPVVVHITDDNEEPIAAYHFDLSGIAFGSMAKKGDEQKLRSAGEVEIQFRRVKSKYPEGTKVTFHVEKGSNPNYLALLVKFVAGDGDVVAVDIKEKGKDKWIALKESWGAIWRIDTPEVLKGPFTVRGEAKDVIPEGWKADTAYESK

Reference: patent US20080267985A1
